Test results taken from patent US20260125454A1 (SHANGHAI JUNSHI BIOSCIENCES, published 2026).
Where a chain is given by its changes, count along the chain named.

B1: hu62 (antibody, V domains shown)
VH: QVQLVQSGAEVKKPGASVKVSCKASGYTFTDFNMHWVRQAPGQGLEWMGYIYPYNGDVVYNQNFTNRVTLTVDTSSSTAYMELRSLRSDDTAVYYCAREGLGGYWGQGTLVTVSS
VL: DVQLTQSPSFLSASVGDRVTITCQASQNIDGNTYMNWYQQKPGKAPKVLIYSIFNLESGVPSRFSGSGSGTEFTLTISSLQPEDFATYYCQQSNDYPYTFGQGTKLEIK
notes: 1F5 HC-3/2B8 LC2-2
B2: hu81 (antibody, V domains shown)
VH: B1 VH with T30I, G44R, G56A, N63D, R84S, D89E
VL: EIVLTQSPATLSLSPGERATLSCKASQNIDYDGYAYLNWYQQKPGQAPRVLIYSVFNLESGIPARFSGSGSGTDFTLTISSLEPEDFAVYYCQQSNEFPYTFGQGTKLEIK
notes: 1F5 HC-5/1A2 LC2-3
B3: hu39 (antibody, V domains shown)
VH: B1 VH with T30I, G44R, R84S, D89E
VL: DIQLTQSPSSLSASVGDRVTITCKASQNIDYGGYSYMNWYQQKPGKAPKVLIYSVFNLESGVPSRFSGSGSGTDFTLTISSLQPEDFATYYCQQSNEAPYTFGQGTKLEIK
notes: 1F5 HC-1/3H10 LC2-2
B4: hu51 (antibody, V domains shown)
VH: B1 VH with G44R, R84S, D89E
VL: DIVLTQSPDSLAVSLGERATINCKASQNIDYGGYSYMNWYQQKPGQPPKVLIYSVFNLESGVPDRFSGSGSGTDFTLTISSLQAEDVAVYYCQQSNEAPYTFGQGTKLEIK
notes: 1F5 HC-2/3H10 LC2-1
B5: hu52 (antibody, V domains shown)
VH: B1 VH with G44R, R84S, D89E
VL: B3 VL
notes: 1F5 HC-2/3H10 LC2-2
B6: hu85 (antibody, V domains shown)
VH: B1 VH with T30I, G44R, G56A, N63D, R84S, D89E
VL: DIVLTQSPASLAVSPGQRATITCKASQNIDFDGYAYMNWYQQKPGQPPKVLIYSVFNLESGVPARFSGSGSGTDFTLTINPVEADDTANYYCQQSHEVPYTFGQGTKLEIK
notes: 1F5 HC-5/1F5 LC1-3
B7: hu91 (antibody, V domains shown)
VH: B1 VH with T30I, G44R, G56A, N63D, R84S, D89E
VL: B3 VL
notes: 1F5 HC-5/3H10 LC2-2
B8: hu75 (antibody, V domains shown)
VH: QVQLVQSGSELKKPGASVKVSCKASGYTFTDFNMHWVRQAPGQGLEWMGYIYPYNGDVVYNQNFTNRFVLSVDSSSSTAYLQISSLKAEDTAVYYCAREGLGGYWGQGTLVTVSS
VL: B1 VL
notes: 1F5 HC-4/2B8 LC2-2
B9: hu33 (antibody, V domains shown)
VH: B1 VH with T30I, G44R, R84S, D89E
VL: B6 VL
notes: 1F5 HC-1/1F5 LC1-3
B10: hu47 (antibody, V domains shown)
VH: B1 VH with G44R, R84S, D89E
VL: B4 VL with Y31F, G32D, S35A, Q42H, N96H, A98V
notes: 1F5 HC-2/1F5 LC1-4
B11: hu29 (antibody, V domains shown)
VH: B1 VH with T30I, G44R, R84S, D89E
VL: B2 VL
notes: 1F5 HC-1/1A2 LC2-3
B12: hu127 (antibody, V domains shown)
VH: B1 VH with F32Y, Y50N, D57G, V58T, N63K, T65N
VL: B1 VL
notes: 2B8 HC1-2/2B8 LC2-2
B13: hu179 (antibody, V domains shown)
VH: QVQLVQSGAEVKKPGASVKVSCKASGYTFTDYNMHWVRQAPGQGLEWMGYISPYNGGTAYNQKFKFRVTLTVDTSSSTAYMELSRLRSDDTVVYYCAREGLGGYWGQGTLVTVSS
VL: B1 VL
notes: 3E5 HC-3/2B8 LC2-2
B14: hu205 (antibody, V domains shown)
VH: B1 VH with F32Y, D57H, V58T, N63K, T65R, L70M, R98K
VL: B1 VL
notes: 3H10 HC-1/2B8 LC2-2
B15: hu88 (antibody, V domains shown)
VH: B1 VH with T30I, G44R, G56A, N63D, R84S, D89E
VL: B1 VL
notes: 1F5 HC-5/2B8 LC2-2
B16: hu192 (antibody, V domains shown)
VH: B13 VH with A24T, G44R, G56A, R85S, D89E, V92A
VL: B1 VL
notes: 3E5 HC-4/2B8 LC2-2
B17: hu166 (antibody, V domains shown)
VH: B13 VH with G44R, R85S, D89E, V92A
VL: B1 VL
notes: 3E5 HC-2/2B8 LC2-2
B18: hu140 (antibody, V domains shown)
VH: B13 VH with Y50N, S52Y, G56A, A59V, K65N, F66N, V92A
VL: B1 VL
notes: 2B8 HC1-3/2B8 LC2-2
B19: hu114 (antibody, V domains shown)
VH: B13 VH with Y50N, S52Y, A59V, K65N, F66N, V92A
VL: B1 VL
notes: 2B8 HC1-1/2B8 LC2-2
B20: hu153 (antibody, V domains shown)
VH: B13 VH with A24T, G44R, R85S, D89E, V92A
VL: B1 VL
notes: 3E5 HC-1/2B8 LC2-2
B21: hu101 (antibody, V domains shown)
VH: B13 VH with G44R, I51V, S52Y, T58S, F66S, R85S, D89E, V92A
VL: B1 VL
notes: 2A2 HC-1/2B8 LC2-2
B22: hu67 (antibody, V domains shown)
VH: B8 VH
VL: B6 VL with F31Y, M37L, H96N, V98F
notes: 1F5 HC-4/1A2 LC2-2
B23: hu78 (antibody, V domains shown)
VH: B8 VH
VL: B3 VL
notes: 1F5 HC-4/3H10 LC2-2
B24: hu68 (antibody, V domains shown)
VH: B8 VH
VL: B2 VL
notes: 1F5 HC-4/1A2 LC2-3
B25: hu69 (antibody, V domains shown)
VH: B8 VH
VL: B3 VL with S10F, G32D, S35A, M37L, D74E, A98F
notes: 1F5 HC-4/1A2 LC2-4
B26: hu70 (antibody, V domains shown)
VH: B8 VH
VL: B2 VL with Y31F, L37M, N96H, F98V
notes: 1F5 HC-4/1F5 LC1-1
B27: hu72 (antibody, V domains shown)
VH: B8 VH
VL: B6 VL
notes: 1F5 HC-4/1F5 LC1-3
B28: hu21 (antibody, V domains shown)
VH: QVQLVQSGAEVKKPGASVKVSCKASGYTFTDYNMHWVRQAPGQRLEWMGYIFPYNGVAVYNRKFRSRVTLTVDTSSSTAYMELSSLRSEDTAVYYCAREGLGGYWGQGTLVTVSS
VL: B4 VL with Y31F, G32D, S35A, Q42H, N96H, A98V
notes: 1B2 HC-2/1F5 LC1-4
B29: hu73 (antibody, V domains shown)
VH: B8 VH
VL: B4 VL with Y31F, G32D, S35A, Q42H, N96H, A98V
notes: 1F5 HC-4/1F5 LC1-4
B30: hu94 (antibody, V domains shown)
VH: B28 VH with I51V, F52Y, V57G, A58S, V59A, R62Q, R65K
VL: B2 VL
notes: 2A2 HC-1/1A2 LC2-3
B31: hu26 (antibody, V domains shown)
VH: B28 VH
VL: B3 VL
notes: 1B2 HC-2/3H10 LC2-2
B32: hu25 (antibody, V domains shown)
VH: B28 VH
VL: B4 VL
notes: 1B2 HC-2/3H10 LC2-1

Molecular target: T1, Biotin-huCGRPaSA (human, not fully specified; biotin (position not given))
T1 construct: exact construct ('aSA') not explained; also called Biotin CGRPaSA; full-length (1-37) CGRP
T1 peptide: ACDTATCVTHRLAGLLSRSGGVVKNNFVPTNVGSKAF
Test: ELISA, supernatant; relative to chimeric C245
Procedure, shortened: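 Antibodies, including reference chimeric C245, titrated 2.5-fold from 1000 ng/mL and incubated 60 min at 37°C on wells coated with 1.0 μg/mL biotin-CGRPaSA and blocked with 2% BSA. Bound IgG detected with HRP anti-human Fc antibody and TMB, acid-stopped, absorbance 450/620 nm.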

| Binder | Relative binding activity, % [%] |
| --- | --- |
| B1 | 15 |
| B2 | 96 |
| B3 | 51 |
| B4 | 83 |
| B5 | 25 |
| B6 | 76 |
| B7 | 98 |
| B8 | 84 |
| B9 | 18 |
| B10 | 10 |
| B11 | 63 |
| B12 | 24 |
| B13 | 77 |
| B14 | 26 |
| B15 | 93 |
| B16 | 15 |

| Binder | Relative binding activity, % [%] |
| --- | --- |
| B17 | 19 |
| B18 | 47 |
| B19 | 41 |
| B20 | 56 |
| B21 | 48 |
| B22 | 115 |
| B23 | 64 |
| B24 | 104 |
| B25 | 102 |
| B26 | 116 |
| B27 | 115 |
| B28 | 33 |
| B29 | 106 |
| B30 | 48 |
| B31 | 20 |
| B32 | 66 |
